Results from patent US6884866B2, “Bulk drying and the effects of inducing bubble nucleation” (Avant Immunotherapeutics, Inc., priority 2001, dated 2005).

Assay: Urokinase activity after foam drying and storage
Assay type: physicochemical
Procedure: (7) Freeze-dried samples of Urokinase were rehydrated with 2 ml of 40 wt % sucrose. The solutions were then transferred to 20 ml sterilized glass vials for future preservation by drying. Before drying, the vials were covered with gray slotted rubber stoppers. The vials were dried inside a vacuum chamber. The vials were sitting on the surface of a stainless steel shelf inside the chamber. The shelf temperature was controlled by circulating ethylene glycol/water antifreeze at a controlled temperature inside the shelf. Before the vacuum was applied the shelf temperature was decreased to 5° C. Then the hydrostatic pressure inside the chamber was decreased to 0.5 Torr. Under such conditions, the suspension boiled for 30 min. […] Visually, under these experimental conditions, stable dry foams were formed inside the vials within 3 hours. After an additional 12 hours of drying at room temperature, the temperature was increased to 45° C. and maintained for an additional 24 hours. After that the chamber was filled with dry N2 gas, the rubber stoppers were pushed down and the vials were sealed with aluminum crimp seals.
The samples were assayed immediately after drying and after 30 days of storage at 40° C. After drying the Urokinase, activity was 93% of the initial activity. […]

Substance: Urokinase
- Urokinase activity, % of the initial activity (after 30 days of storage at 40° C.): 90%
- Urokinase activity, % of the initial activity (immediately after drying (40 wt % sucrose, maximum 45° C.)): 93%
